Laboratory results published in publication PMC8079451, “Phosphopeptide interactions of the Nbs1 N-terminal FHA-BRCT1/2 domains” (Scientific Reports, 2021).
Numbering of substitutions follows the chain as printed. Square brackets hold non-standard residues; d marks the D form. Primed or numbered codes have the meaning given here. Ends that are not written are not given here. Peptide text beside a SMILES is read from it. FITC′ = fluorescein isothiocyanate label; pT = C[C@@H](OP(=O)(O)O)[C@H](N)C(=O)O; pS = N[C@@H](COP(=O)(O)O)C(=O)O

Key:
[1] = biological target: T1, hsNbs1(384) (Homo sapiens, UniProt O60934); test: Fluorescence polarization (FP) binding of FITC-labeled phosphopeptides to hsNbs1(384); conditions: wild-type hsNbs1(384); for binding to Nbs1(384), in words: FP assay
T1 construct: The N-terminal 384 residues of homo sapiens Nbs1 (hsNbs1(384) containing the FHA-BRCT1-BRCT2 domains); made in house; host or cells: E. coli BL21(DE3) pLacI
T1 sequence (O60934 1-384): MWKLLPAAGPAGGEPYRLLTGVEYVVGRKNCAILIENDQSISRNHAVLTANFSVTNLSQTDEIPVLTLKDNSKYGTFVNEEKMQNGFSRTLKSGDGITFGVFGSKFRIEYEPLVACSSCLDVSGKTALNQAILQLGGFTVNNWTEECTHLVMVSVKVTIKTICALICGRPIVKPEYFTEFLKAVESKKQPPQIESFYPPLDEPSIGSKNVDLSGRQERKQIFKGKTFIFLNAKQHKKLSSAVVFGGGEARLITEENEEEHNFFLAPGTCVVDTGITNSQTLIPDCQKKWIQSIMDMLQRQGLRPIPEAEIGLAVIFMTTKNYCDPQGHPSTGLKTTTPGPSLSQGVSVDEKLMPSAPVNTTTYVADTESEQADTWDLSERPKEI
Method: Figure 4 Binding of FITC-labeled peptides to hsNbs1(384). Solid lines with filled data markers show normalized fluorescence polarization of the following peptides (see Table 1 for peptide sequences) as a function of the concentration of hsNbs1(384) corresponding to: CtIP-pS347 (gray); CtIP-pT847 (blue); FANCJ (green); CtIP-859 (orange); ChK2-pT68 (yellow). FP studies were performed at room temperature in 25 mM HEPES (pH 7.4), 150 mM NaCl, 1 mM EDTA, 2 mM DTT, 0.05% Tween20, 0.1% BSA after a 15-min incubation period. The data points were fit to a single-site non-cooperative model.
Phosphopeptide-protein interactions were measured by a fluorescence polarization (FP) assay. 100 nM FITC-labeled phosphopeptides were incubated at room temperature for 15 min with the indicated concentrations of hsNbs1(384) in FP buffer composed of 25 mM HEPES, 150 mM NaCl, 1 mM EDTA, 2 mM DTT, 0.05% Tween20, 0.1% BSA, pH 7.4 prior to the measurement of fluorescence polarization (POLARstar Omega microplate reader, BMG Labtech). All samples were prepared in a 96-well black flat-bottomed polypropylene microplate and each well contained 50 µL. Each well was recorded by 100 flashes with an excitation wavelength of 485 nm, and detection of emission at 520 nm. Data for the interaction of a phosphopeptide with hsNbs1(384) were analyzed using non-linear fitting with a one-site total binding model. All Kd values were determined in triplicate, and reported as mean ± standard deviation. All phosphopeptides used were synthesized by GenScript.

[2] = biological target: T2, hsNbs1(384), the N-terminal 384 residues of homo sapiens Nbs1 containing the FHA-BRCT1-BRCT2 domains (human, UniProt O60934 1-384); test: fluorescence polarisation; 100 nM FITC-labeled phosphopeptide with increasing hsNbs1(384); room temperature, 15 min incubation; 25 mM HEPES pH 7.4, 150 mM NaCl, 1 mM EDTA, 2 mM DTT, 0.05% Tween20, 0.1% BSA; one-site model; conditions: both partners purified
T2 construct: gene optimised for E. coli, cloned into pET30a (NdeI/HindIII); also called wt; source: E. coli BL21(DE3) pLacI, purified (Ni-NTA, HiTrap Q, Superdex 75)
T2 sequence (looked up): T1 sequence (O60934 1-384)

[3] = biological target: T3, hsNbs1(384)(R28S,K29S,R43A) triple mutant (human, UniProt O60934 1-384, R28S | K29S | R43A); test: as above; conditions: both partners purified
T3 construct: source: E. coli BL21(DE3) pLacI, purified as the wild type
T3 sequence (looked up): T1 sequence (O60934 1-384) with R28S, K29S, R43A

CC(C)C[C@H](NC(=O)[C@H](CCC(=O)O)NC(=O)[C@H](CC(=O)O)NC(=O)[C@H](CCC(=O)O)NC(=O)[C@@H](NC(=O)[C@H](CC(=O)O)NC(=O)CNC(=O)[C@H](COP(=O)(O)O)NC(=O)[C@H](CC(=O)O)NC(=O)[C@H](CCC(=O)O)NC(=O)[C@H](C)NC(=O)CNC(=O)[C@H](CC(N)=O)NC(=O)[C@H](CC(=O)O)NC(=O)[C@H](CCC(N)=O)NC(=O)CNC(=O)[C@H](CCC(=O)O)NC(=O)[C@H](CO)NC(=O)[C@H](CCC(N)=O)NC(=O)[C@@H](NC(=O)CNC(=O)[C@@H](N)CCC(=O)O)C(C)C)[C@@H](C)OP(=O)(O)O)C(=O)N[C@@H](CCCNC(=N)N)C(=O)O (H-EGVQSEGQDNGAED[pS]GD[pT]EDELR-OH)
difference in Kd between N-terminal and C-terminal fluorescein-tagged XRCC1 pS485,pT488 peptides ([1]; FP, Kd 35 µM vs 4.5 µM): eightfold

DPYAG(pSpT)DENTDSEEHQE [XRCC1 pS518,pT519, FITC-labeled XRCC1 phosphopeptide with consecutively phosphorylated pSer518-pThr519]
binding to Nbs1(384), in words [1]: no interaction

TRVS[pS]PVFGAT [CtIP pS327, FITC-labeled CtIP pSer327 peptide that targets the tandem BRCA1 BRCT domains]
binding to Nbs1(384), in words [1]: does not bind

B1: Chk2 pT68 phosphopeptide SLETVS(pT)QELYSIPED with C-terminal K/FITC (peptide)
peptide: SLETVS[pT]QELYSIPEDK(FITC′)
notes: Checkpoint 2 kinase (Chk2), stretch around pT68; added C-terminal lysine that carries FITC (footnote b: C-terminal K/FITC); source: synthetic peptide (GenScript)
Kd [2]: 98.7 µM

B2: hsMDC1 phosphopeptide FITC-GG-PFGFID(pS)D(pT)DVEEER (peptide)
peptide: {FITC′}-GGPFGFID[pS]D[pT]DVEEER
notes: Gly-Gly between the N-terminal FITC and the peptide; MDC1, human, one of the SDT repeats; also called second test peptide containing the pSer-Asp-pThr motif; source: synthetic peptide (GenScript)
Kd [3]: 1.6 µM

B3: CtIP pT847 phosphopeptide FITC-GG-RYIPPN(pT)PENFWEVG (peptide)
peptide: {FITC′}-GGRYIPPN[pT]PENFWEVG
notes: Gly-Gly between the N-terminal FITC and the peptide; CtIP, human, stretch around pT847; source: synthetic peptide (GenScript)
Kd [2]: 22 µM

B4: XRCC1 pS485,pT488 phosphopeptide EGVQSEGQDNGAED(pS)GD(pT)EDELR with C-terminal K/FITC (peptide)
peptide: EGVQSEGQDNGAED[pS]GD[pT]EDELRK(FITC′)
notes: XRCC1, human, stretch around pS485 and pT488; added C-terminal lysine that carries FITC (footnote b: C-terminal K/FITC); also called XRCC1 pSer485-Gly-Asp-pThr488 peptide containing a C-terminal fluorescein; source: synthetic peptide (GenScript)
Kd [2]: 4.5 µM

B5: XRCC1 pS485,pT488 phosphopeptide FITC-GG-DNGAED(pS)GD(pT)EDELR (peptide)
peptide: {FITC′}-GGDNGAED[pS]GD[pT]EDELR
notes: Gly-Gly between the N-terminal FITC and the peptide; XRCC1, human, stretch around pS485 and pT488; also called XRCC1 pSer485-Gly-Asp-pThr488 peptide with an N-terminal fluorescein tag; source: synthetic peptide (GenScript)
Kd [2]: 34.8 µM

B6: FANCJ pT1133 phosphopeptide EDESIYF(pT)PELYDPEIE with C-terminal K/FITC (peptide)
peptide: EDESIYF[pT]PELYDPEIEK(FITC′)
notes: FANCJ helicase, stretch around pT1133; added C-terminal lysine that carries FITC (footnote b: C-terminal K/FITC); A shorter FANCJ phosphopeptide (SIYFpTPELYD) stands in the cited TopBP1 BRCT7/8 structure PDB 3AL3; also called FANCJ pThr1133 phosphopeptide; FANCJ phosphopeptide; source: synthetic peptide (GenScript)
Kd [2]: 26.9 µM

B7: XRCC1 pS518,pT519 phosphopeptide FITC-GG-DPYAG(pSpT)DENTDSEEHQE (peptide)
peptide: {FITC′}-GGDPYAG[pS][pT]DENTDSEEHQE
notes: Gly-Gly between the N-terminal FITC and the peptide; XRCC1, human, stretch around pS518 and pT519; also called XRCC1 pSer518-pThr519 phosphopeptide; source: synthetic peptide (GenScript)
Kd [2]: > 65 µM

B8: CtIP pT312,pT315 phosphopeptide TEDSLRFSDS(pT)SK(pT)PPQEELP with C-terminal K/FITC (peptide)
peptide: TEDSLRFSDS[pT]SK[pT]PPQEELPK(FITC′)
notes: CtIP, human, stretch around pT312 and pT315; added C-terminal lysine that carries FITC (footnote b: C-terminal K/FITC); also called test peptide containing the pThr312-Ser-Lys-pThr315; source: synthetic peptide (GenScript)
Kd [2]: 90 µM

B9: CtIP pT859 phosphopeptide WEVGFPS(pT)QTCMERGYI with C-terminal K/FITC (peptide)
peptide: WEVGFPS[pT]QTCMERGYIK(FITC′)
notes: CtIP, human, stretch around pT859; added C-terminal lysine that carries FITC (footnote b: C-terminal K/FITC); also called CtIP-859; source: synthetic peptide (GenScript)
Kd [2]: 90.5 µM

B10: MDC1 pS329,pT331 phosphopeptide FITC-GG-FID(pS)D(pT)DAEEE (peptide)
peptide: {FITC′}-GGFID[pS]D[pT]DAEEE
notes: Gly-Gly between the N-terminal FITC and the peptide; MDC1, human, stretch around pS329 and pT331; also called hsMDC1; source: synthetic peptide (GenScript)
Kd [3]: 1.47 µM
Kd [2]: 0.65 µM

B11: CtIP pS347 phosphopeptide GLDLNTSL(pS)PSLLQPGKKK with C-terminal K/FITC (peptide)
peptide: GLDLNTSL[pS]PSLLQPGKKKK(FITC′)
notes: CtIP, human, stretch around pS347; added C-terminal lysine that carries FITC (footnote b: C-terminal K/FITC); also called CtIP pSer347 peptide; pSer347 peptide; source: synthetic peptide (GenScript)
Kd [2]: 2.64 µM
